{"source": "paper PMC6675907", "about": "“Identification and functional characterisation of a novel N-cyanoamidine neonicotinoid metabolising cytochrome P450, CYP9Q6, from the buff-tailed bumblebee Bombus terrestris” (Insect Biochemistry and Molecular Biology, 2019)", "proteins": {"B1": {"name": "CYP9Q6 (Bombus terrestris audax) (protein)", "chain": "MEYLSLGLFLIAILIAIYYCATKNHNLFKKHGILHIPPMPLFGNMGSFFAKRSTLQDTILEAYELHPEAKYVGIYESLTPIIVLRDLDLIKSVNMKNFDHFTDHRNFVFKDMDPIFAGMLFSMKGEQWKEQRSILSLAFTSNKVKDMFNLMSECATRYANYLSNLAENEREMEMRDLLTKYTNDVIATCVYGVSVDTIKNPKNVFYTYGKSTTFTSFKKDMAMLAQRNLPWLAKLFQLRFLEKHIAKFFTEQVINTIEERKQNGTYRSDILQLFIDVNDKKVPGKGMSTENMVNHAFSLFFGGTDSVATQTSFLFYLLAENPEILKRLQEEIDETLENNNGQLTYDAIQKMKYLDAMINEAMRLQPITVFLDRLCVKDFELPPALPGEKPFTVKAGMNIWIPVDAIHHDPKHYENPQKFDPDRFLENGKKIINSGAFMPFGLGPRICIGNRFALTEIKVLLCHILAKCNVKIGSKMLLPLQYEEGVITAYAKNGFWLNVEPREHSYCTSQTNGTTKHLSNGNCRN", "notes": "with NADPH--cytochrome P450 reductase (Musca domestica, house fly)"}}, "key": {"[1]": {"substrate": "C/C(=N\\C#N)N(C)Cc1ccc(Cl)nc1", "assay": "LC-MS/MS of metabolites, microsomes with recombinant P450/CPR, Michaelis-Menten fit", "assay_type": "biochemical, Bombus terrestris", "settings": "NADPH regeneration system, 30 °C, 1 h, substrate 3.1-200 μM, house fly CPR co-expressed"}, "[2]": {"substrate": "N#C/N=C1\\SCCN1Cc1ccc(Cl)nc1", "assay": "LC-MS/MS of metabolites, microsomes with recombinant P450/CPR, Michaelis-Menten fit", "assay_type": "biochemical, Bombus terrestris", "settings": "NADPH regeneration system, 30 °C, 1 h, substrate 3.1-200 μM, house fly CPR co-expressed"}}, "data": [{"protein": "B1", "values": [{"measurement": "Km", "setting": "[1]", "value": 27.32, "unit": "µM"}, {"measurement": "Km", "setting": "[2]", "value": 15.83, "unit": "µM"}]}]}
